# From the supplement of paper PMC9112550, “Optimization of the antimicrobial peptide Bac7 by deep mutational scanning” (BMC Biology, 2022)
# Test system: Escherichia coli TOP10
# Experiment: shrunken log2 fold change of peptide-encoding DNA abundance (4.5 h post-induction vs induction); higher = less antimicrobial activity (less host growth inhibition)
# Conditions: time post-induction: 4.5 h; library: site-saturation at positions 5, 18, 19, 20
# 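Note: peptides expressed intracellularly from a pBAD plasmid library in pooled LB shake-flask culture, induced with 0.3% L-arabinose, DNA abundance read by NGS, three biological replicates, DESeq2 with apeglm shrinkage.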
row,Sequence,shrunken log2 fold change
1,RRIRTRPPRLPRPRPRPICWPRP,-0.13
2,RRIRGRPPRLPRPRPRPFQEPRP,0.0152
3,RRIRLRPPRLPRPRPRPKDVPRP,-0.0185
4,RRIRYRPPRLPRPRPRPCTSPRP,-0.679
5,RRIRMRPPRLPRPRPRPSRIPRP,0.0606
6,RRIRERPPRLPRPRPRPTRNPRP,0.22
7,RRIRQRPPRLPRPRPRPRSEPRP,0.234
8,RRIRWRPPRLPRPRPRPLISPRP,-0.0451
9,RRIRQRPPRLPRPRPRPYELPRP,-0.695
10,RRIRARPPRLPRPRPRPWCKPRP,0.102
11,RRIRNRPPRLPRPRPRPGWQPRP,0.116
12,RRIRKRPPRLPRPRPRPEGAPRP,1.54
13,RRIRQRPPRLPRPRPRPNWNPRP,-0.206
14,RRIRLRPPRLPRPRPRPKSEPRP,0.0422
15,RRIRYRPPRLPRPRPRPAEEPRP,0.0567
16,RRIRKRPPRLPRPRPRPANRPRP,0.167
17,RRIRMRPPRLPRPRPRPHQTPRP,0.184
18,RRIRGRPPRLPRPRPRPCGEPRP,0.931
19,RRIRSRPPRLPRPRPRPEWDPRP,0.365
20,RRIRIRPPRLPRPRPRPQCMPRP,-0.836
21,RRIRLRPPRLPRPRPRPCPEPRP,-0.0401
22,RRIRRRPPRLPRPRPRPHNGPRP,-0.172
23,RRIRHRPPRLPRPRPRPLECPRP,-0.257
24,RRIRSRPPRLPRPRPRPDPDPRP,-0.0414
25,RRIRKRPPRLPRPRPRPDCVPRP,0.342

row,Sequence,shrunken log2 fold change
1,RRIRERPPRLPRPRPRPIQPPRP,0.0319
2,RRIRMRPPRLPRPRPRPTDLPRP,0.225
3,RRIRVRPPRLPRPRPRPYNIPRP,-1.26
4,RRIRLRPPRLPRPRPRPYEKPRP,-0.159
5,RRIRSRPPRLPRPRPRPWYSPRP,-0.257
6,RRIRCRPPRLPRPRPRPYDVPRP,-0.0223
7,RRIRGRPPRLPRPRPRPHEQPRP,0.0117
8,RRIRNRPPRLPRPRPRPDSIPRP,-0.307
9,RRIRRRPPRLPRPRPRPTTHPRP,0.306
10,RRIRFRPPRLPRPRPRPWTHPRP,-0.0346
11,RRIRDRPPRLPRPRPRPVDTPRP,-0.0119
12,RRIRWRPPRLPRPRPRPVAGPRP,0.524
13,RRIRPRPPRLPRPRPRPKIVPRP,0.026
14,RRIRTRPPRLPRPRPRPSMAPRP,0.444
15,RRIRARPPRLPRPRPRPDCRPRP,0.0473
16,RRIRDRPPRLPRPRPRPVMLPRP,-0.0376
17,RRIRIRPPRLPRPRPRPKIQPRP,-0.196
18,RRIRMRPPRLPRPRPRPTSLPRP,0.546
19,RRIRHRPPRLPRPRPRPDCKPRP,-0.148
20,RRIRGRPPRLPRPRPRPFQNPRP,0.31
21,RRIRMRPPRLPRPRPRPVHLPRP,-0.0129
22,RRIRTRPPRLPRPRPRPMDSPRP,-0.0716
23,RRIRMRPPRLPRPRPRPFQVPRP,0.0921
24,RRIRTRPPRLPRPRPRPLMMPRP,-0.314
25,RRIRVRPPRLPRPRPRPPAWPRP,0.498

row,Sequence,shrunken log2 fold change
1,RRIRARPPRLPRPRPRPIHYPRP,-0.241
2,RRIRPRPPRLPRPRPRPMDTPRP,-0.276
3,RRIRSRPPRLPRPRPRPAISPRP,0.153
4,RRIRRRPPRLPRPRPRPACKPRP,0.163
5,RRIRKRPPRLPRPRPRPHPNPRP,0.135
6,RRIRMRPPRLPRPRPRPMANPRP,0.356
7,RRIRSRPPRLPRPRPRPFSLPRP,-0.506
8,RRIRSRPPRLPRPRPRPDRMPRP,-0.129
9,RRIRVRPPRLPRPRPRPTITPRP,-0.178
10,RRIRGRPPRLPRPRPRPIFQPRP,0.407
11,RRIRARPPRLPRPRPRPSFLPRP,-0.338
12,RRIRFRPPRLPRPRPRPHRCPRP,-0.0295
13,RRIRGRPPRLPRPRPRPGCLPRP,1.01
14,RRIRQRPPRLPRPRPRPRGNPRP,0.106
15,RRIRERPPRLPRPRPRPYYTPRP,-0.116
16,RRIRSRPPRLPRPRPRPQDYPRP,-0.356
17,RRIRWRPPRLPRPRPRPWINPRP,-0.506
18,RRIRWRPPRLPRPRPRPSPMPRP,-0.108
19,RRIRYRPPRLPRPRPRPGWDPRP,-0.0163
20,RRIRMRPPRLPRPRPRPLWYPRP,0.205
21,RRIRKRPPRLPRPRPRPLRGPRP,0.873
22,RRIRSRPPRLPRPRPRPRTVPRP,0.106
23,RRIRHRPPRLPRPRPRPEGYPRP,-0.124
24,RRIRWRPPRLPRPRPRPCMGPRP,-0.0956
25,RRIRNRPPRLPRPRPRPGWAPRP,0.135

row,Sequence,shrunken log2 fold change
1,RRIRNRPPRLPRPRPRPMKLPRP,-0.282
2,RRIRRRPPRLPRPRPRPGRDPRP,0.717
3,RRIRHRPPRLPRPRPRPPYNPRP,-0.642
4,RRIRRRPPRLPRPRPRPNVRPRP,-0.0448
5,RRIRARPPRLPRPRPRPQNRPRP,0.495
6,RRIRCRPPRLPRPRPRPNGFPRP,-0.0899
7,RRIRLRPPRLPRPRPRPTSRPRP,0.0104
8,RRIRHRPPRLPRPRPRPKAYPRP,0.0124
9,RRIRMRPPRLPRPRPRPHVFPRP,0.0558
10,RRIRFRPPRLPRPRPRPQIVPRP,0.0871
11,RRIRIRPPRLPRPRPRPWEPPRP,-0.146
12,RRIRWRPPRLPRPRPRPESRPRP,0.323
13,RRIRQRPPRLPRPRPRPKCKPRP,0.0386
14,RRIRWRPPRLPRPRPRPLNPPRP,-0.0128
15,RRIRQRPPRLPRPRPRPGHPPRP,0.0393
16,RRIRPRPPRLPRPRPRPVRVPRP,0.502
17,RRIRWRPPRLPRPRPRPPIKPRP,-0.0713
18,RRIRARPPRLPRPRPRPFFWPRP,0.321
19,RRIRARPPRLPRPRPRPVQVPRP,0.123
20,RRIRARPPRLPRPRPRPTNSPRP,0.165
21,RRIRKRPPRLPRPRPRPPTNPRP,0.654
22,RRIRRRPPRLPRPRPRPRDAPRP,0.736
23,RRIRTRPPRLPRPRPRPLGSPRP,0.0751
24,RRIRWRPPRLPRPRPRPKNVPRP,-0.0641
25,RRIRNRPPRLPRPRPRPPEYPRP,-0.932

row,Sequence,shrunken log2 fold change
1,RRIRDRPPRLPRPRPRPFNIPRP,0.0125
2,RRIRVRPPRLPRPRPRPSTHPRP,-0.573
3,RRIRHRPPRLPRPRPRPDNDPRP,0.00849
4,RRIRARPPRLPRPRPRPHWQPRP,0.124
5,RRIRFRPPRLPRPRPRPHCWPRP,-0.0304
6,RRIRMRPPRLPRPRPRPKVGPRP,1.27
7,RRIRFRPPRLPRPRPRPQQWPRP,-0.208
8,RRIRCRPPRLPRPRPRPAITPRP,-0.372
9,RRIRMRPPRLPRPRPRPALWPRP,0.858
10,RRIRMRPPRLPRPRPRPLAMPRP,0.548
11,RRIRFRPPRLPRPRPRPSGCPRP,-0.0116
12,RRIRNRPPRLPRPRPRPTRYPRP,0.217
13,RRIRYRPPRLPRPRPRPVNIPRP,-0.617
14,RRIRERPPRLPRPRPRPIATPRP,0.221
15,RRIRMRPPRLPRPRPRPKEAPRP,-0.00711
16,RRIRHRPPRLPRPRPRPHFVPRP,-0.136
17,RRIRTRPPRLPRPRPRPEFTPRP,0.016
18,RRIRSRPPRLPRPRPRPHSWPRP,0.122
19,RRIRARPPRLPRPRPRPWDEPRP,0.379
20,RRIRTRPPRLPRPRPRPQTRPRP,0.145
21,RRIRYRPPRLPRPRPRPPFKPRP,-0.554
22,RRIRTRPPRLPRPRPRPGMHPRP,0.0032
23,RRIRCRPPRLPRPRPRPNILPRP,-0.701
24,RRIRGRPPRLPRPRPRPFFKPRP,0.186
25,RRIRDRPPRLPRPRPRPWMHPRP,0.00346
